Results on five molecules are retold here after publication PMC6126843, “A dual-specific macrophage colony-stimulating factor antagonist of c-FMS and αvβ3 integrin for osteoporosis therapy” (PLoS Biology, 2018).

Assay [1] deals with c-FMS (Homo sapiens) (UniProt P07333). Particulars: cited from earlier work.
The target in assay [2] is M-CSFRGD variant 5.6, purified soluble protein (human) (UniProt P09603). The assay is described as follows: SPR; ProteOn XPR36; M-CSF variants immobilised by amine coupling; c-FMS or αvβ3 integrin flowed at 0, 12.5, 25, 50, 100 and 200 nM, 50 μl/min, 25 °C, PBS + 0.005% Tween; KD from the equilibrium binding phase; apparent (S9 Fig legend).
The target in assay [3] is M-CSFRGD variant 4.22, purified soluble protein (human) (UniProt P09603). The assay is described as above.
Assay [4] addresses M-CSF_(c-FMS), monospecific M-CSF that can bind only c-FMS (human) (UniProt P09603). Described as above.
Assay [5] has as its target M-CSFRGD variant 4.24, purified soluble protein (human) (UniProt P09603). The description is as above.
The target of assay [6] is M-CSF_(αvβ3), monospecific M-CSF that can bind αvβ3 integrin (human) (UniProt P09603). The assay is described as above.
Assay [7] concerns the target αvβ3 integrin (Homo sapiens) (UniProt P06756). Particulars: cited from earlier work.
For assay [8], the target named is T1, soluble Fc-conjugated human c-FMS (human, UniProt P07333 20-517).
T1 construct: c-FMS (M-CSF receptor, CSF-1R), human, soluble form; Detected with goat anti-human Fc FITC; also called c-FMS-Fc; soluble c-FMS; source: bought: R&D systems
In words: flow cytometry on cells; yeast surface display: yeast displaying M-CSF incubated with soluble c-FMS-Fc (0.5–2000 nM for the titration, 100 nM for the libraries, 50 nM for single clones) in PBS + 1% BSA, 1 h at room temperature; detected with goat anti-human Fc FITC; apparent. Particulars: one partner purified. For orientation: A flow cytometer gives signals particle by particle.

Chain of αvβ3 integrin (Homo sapiens) (P06756 31-992, chain 1 of 2): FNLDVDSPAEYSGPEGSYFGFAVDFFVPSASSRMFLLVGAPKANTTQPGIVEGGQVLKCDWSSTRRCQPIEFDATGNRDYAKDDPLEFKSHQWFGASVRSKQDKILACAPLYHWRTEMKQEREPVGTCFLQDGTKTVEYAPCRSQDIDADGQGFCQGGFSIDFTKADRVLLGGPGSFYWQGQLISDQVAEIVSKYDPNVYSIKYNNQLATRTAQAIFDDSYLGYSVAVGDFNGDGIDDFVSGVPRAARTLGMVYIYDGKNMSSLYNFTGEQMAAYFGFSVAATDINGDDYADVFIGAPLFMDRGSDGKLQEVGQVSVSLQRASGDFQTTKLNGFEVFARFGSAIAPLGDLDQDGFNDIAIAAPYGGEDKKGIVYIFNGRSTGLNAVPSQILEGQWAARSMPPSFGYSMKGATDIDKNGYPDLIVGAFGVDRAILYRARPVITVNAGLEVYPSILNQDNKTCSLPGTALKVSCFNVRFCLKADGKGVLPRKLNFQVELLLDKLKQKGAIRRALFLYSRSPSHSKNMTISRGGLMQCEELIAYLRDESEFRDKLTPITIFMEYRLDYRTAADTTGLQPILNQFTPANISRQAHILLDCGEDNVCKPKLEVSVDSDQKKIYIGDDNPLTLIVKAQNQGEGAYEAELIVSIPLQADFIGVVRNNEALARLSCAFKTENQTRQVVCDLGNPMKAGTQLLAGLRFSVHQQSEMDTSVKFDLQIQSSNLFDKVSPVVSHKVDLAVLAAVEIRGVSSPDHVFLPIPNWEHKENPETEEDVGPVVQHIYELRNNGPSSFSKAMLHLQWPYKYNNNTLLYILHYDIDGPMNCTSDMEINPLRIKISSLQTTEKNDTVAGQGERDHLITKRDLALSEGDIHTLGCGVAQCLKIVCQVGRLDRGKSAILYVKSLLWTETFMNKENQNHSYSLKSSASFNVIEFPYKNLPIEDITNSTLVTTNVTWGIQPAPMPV
Chain of αvβ3 integrin (Homo sapiens) (P05106 27-718, chain 2 of 2, further chain): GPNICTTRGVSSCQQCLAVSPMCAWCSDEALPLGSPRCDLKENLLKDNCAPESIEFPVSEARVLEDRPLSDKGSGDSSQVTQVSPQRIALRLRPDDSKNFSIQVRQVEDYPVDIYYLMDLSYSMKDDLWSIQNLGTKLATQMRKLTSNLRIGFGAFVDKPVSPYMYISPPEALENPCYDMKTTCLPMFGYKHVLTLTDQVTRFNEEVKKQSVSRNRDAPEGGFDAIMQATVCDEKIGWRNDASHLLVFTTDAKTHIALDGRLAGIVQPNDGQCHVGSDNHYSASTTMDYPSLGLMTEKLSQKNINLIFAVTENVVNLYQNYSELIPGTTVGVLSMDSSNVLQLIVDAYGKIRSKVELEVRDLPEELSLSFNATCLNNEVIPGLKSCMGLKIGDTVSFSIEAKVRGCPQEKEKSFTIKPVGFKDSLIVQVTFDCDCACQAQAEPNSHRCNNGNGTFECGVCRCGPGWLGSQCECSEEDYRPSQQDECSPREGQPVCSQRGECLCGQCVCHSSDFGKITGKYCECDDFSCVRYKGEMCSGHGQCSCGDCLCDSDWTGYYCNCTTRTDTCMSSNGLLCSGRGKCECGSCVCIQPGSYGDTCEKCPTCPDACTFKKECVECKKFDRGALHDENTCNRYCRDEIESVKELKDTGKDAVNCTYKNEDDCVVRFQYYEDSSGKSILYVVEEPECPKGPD
Chain of c-FMS (Homo sapiens) (P07333 20-517): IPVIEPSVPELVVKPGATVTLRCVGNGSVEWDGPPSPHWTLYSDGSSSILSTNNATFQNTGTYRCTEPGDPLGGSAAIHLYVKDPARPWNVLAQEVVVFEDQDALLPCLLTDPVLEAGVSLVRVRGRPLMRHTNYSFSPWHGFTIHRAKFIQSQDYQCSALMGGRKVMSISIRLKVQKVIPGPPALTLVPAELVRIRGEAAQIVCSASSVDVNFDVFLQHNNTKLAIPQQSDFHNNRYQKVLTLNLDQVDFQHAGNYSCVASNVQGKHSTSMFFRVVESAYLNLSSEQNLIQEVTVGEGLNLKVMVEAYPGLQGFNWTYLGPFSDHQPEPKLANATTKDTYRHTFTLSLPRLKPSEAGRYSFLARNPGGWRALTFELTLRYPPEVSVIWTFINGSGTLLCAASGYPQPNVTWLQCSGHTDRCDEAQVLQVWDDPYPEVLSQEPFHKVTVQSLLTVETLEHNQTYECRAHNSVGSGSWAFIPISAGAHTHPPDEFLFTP
T1 sequence (P07333 20-517): as above

For M-CSF (from UniProt P09603), the Kd in assay [1] was 13.6 nM.
In the case of “human c-FMS soluble protein (from UniProt P07333 20-517) (receptor)”, the Kd in assay [2] was determined as 96 nM; in assay [3], 152 nM; in assay [4], 195 nM; in assay [5] it was 219 nM.
On to “soluble human αvβ3 integrin (from UniProt P06756 31-1048; P05106 27-718) (complex)”, for which the Kd worked out at 245 nM in assay [2], 199 nM in assay [3], 108 nM in assay [5] and 231 nM in assay [6].
Consider vitronectin (from UniProt P04004), for which the Kd in assay [7] is 40.7 nM.

B1: M-CSF_(C31S), displayed on the yeast surface (ligand)
chain: EEVSEYCSHMIGSGHLQSLQRLIDSQMETSSQITFEFVDQEQLKDPVCYLKKAFLLVQDIMEDTMRFRDNTPNAIAIVQLQELSLRLKSCFTKDYEEHDKACVRTFYETPLQLLEKVKNVFNETKNLLDKDWNIFSKNCNNSFAECSSQ
modifications: Yeast-displayed Aga fusion with c-myc tag (carrier left out). Mature numbering +32 = precursor. Limits follow the M-CSF part of PDB 4WRL entity 2 (mature 1-149); the paper's own limits are not …
Take B1: in assay [8], the Kd came to 20 nM.
